Experimental data: PMC10397247
Blank lines part the entries; values can stand above or below the binder they belong to.

Tests used:
Assay in all cases: two-hybrid library CCmax;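 note: natural log of median RNA to DNA barcode read ratio; higher means stronger binding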
[1] = molecular target: T1, 4H_APH; conditions: mean of both orientations
T1 chain: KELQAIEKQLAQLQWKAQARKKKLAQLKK

[2] = molecular target: T2, 4H337-AA; conditions: mean of both orientations
T2 chain: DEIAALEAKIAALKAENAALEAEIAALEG

[3] = molecular target: T3, O11-AA; conditions: mean of both orientations
T3 chain: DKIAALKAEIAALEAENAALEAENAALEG

[4] = molecular target: T4, 4H384-AA; conditions: mean of both orientations
T4 chain: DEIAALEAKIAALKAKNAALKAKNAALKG

[5] = molecular target: T5, 4H451-AA; conditions: mean of both orientations
T5 chain: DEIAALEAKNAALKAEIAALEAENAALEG

[6] = molecular target: T6, 4H3049-AA; conditions: mean of both orientations
T6 chain: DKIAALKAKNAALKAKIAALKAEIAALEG

[7] = molecular target: 4H_GCN4
[8] = molecular target: T7, 4H3587-AA; conditions: mean of both orientations
T7 chain: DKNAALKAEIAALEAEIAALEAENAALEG

[9] = molecular target: GCN2_T; conditions: mean of both orientations
[10] = molecular target: T8, 4H3905-AA; conditions: mean of both orientations
T8 chain: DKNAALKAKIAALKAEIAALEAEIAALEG

[11] = molecular target: T9, 4H43-AA; conditions: mean of both orientations
T9 chain: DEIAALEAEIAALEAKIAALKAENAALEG

[12] = molecular target: T10, 4H3625-AA; conditions: mean of both orientations
T10 chain: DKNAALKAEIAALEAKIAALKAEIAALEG

[13] = molecular target: T11, O14-AA; conditions: mean of both orientations
T11 chain: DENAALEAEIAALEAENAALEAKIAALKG

[14] = molecular target: T12, 4H2888-AA
T12 chain: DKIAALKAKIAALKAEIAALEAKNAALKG

[15] = molecular target: T13, 4H4038-AA; conditions: mean of both orientations
T13 chain: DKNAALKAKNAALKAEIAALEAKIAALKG

[16] = molecular target: T14, 4H_BCR; conditions: mean of both orientations
T14 chain: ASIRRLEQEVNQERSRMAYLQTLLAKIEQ

[17] = molecular target: T15, 4H510-AA; conditions: mean of both orientations
T15 chain: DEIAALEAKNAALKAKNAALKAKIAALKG

[18] = molecular target: T16, O13-AA; conditions: mean of both orientations
T16 chain: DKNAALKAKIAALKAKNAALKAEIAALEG

[19] = molecular target: T17, 4H3590-AA; conditions: mean of both orientations
T17 chain: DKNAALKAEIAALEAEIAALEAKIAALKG

[20] = molecular target: T18, 4H4033-AA; conditions: mean of both orientations
T18 chain: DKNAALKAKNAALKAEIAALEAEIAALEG

[21] = molecular target: T19, 4H2536-AA
T19 chain: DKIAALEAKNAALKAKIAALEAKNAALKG

[22] = molecular target: T20, 4H3922-AA; conditions: mean of both orientations
T20 chain: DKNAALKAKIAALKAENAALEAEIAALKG

[23] = molecular target: T21, 4H369-AA
T21 chain: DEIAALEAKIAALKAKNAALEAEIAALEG

[24] = molecular target: T22, 4H2726-AA; conditions: mean of both orientations
T22 chain: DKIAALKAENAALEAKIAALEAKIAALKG

[25] = molecular target: T23, 4H3605-AA; conditions: mean of both orientations
T23 chain: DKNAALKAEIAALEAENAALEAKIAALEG

[26] = molecular target: T24, 4H662-AA; conditions: mean of both orientations
T24 chain: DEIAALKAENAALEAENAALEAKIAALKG

[27] = molecular target: T25, 4H55-AA; conditions: mean of both orientations
T25 chain: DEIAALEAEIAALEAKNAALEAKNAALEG

[28] = molecular target: T26, 4H2608-AA; conditions: mean of both orientations
T26 chain: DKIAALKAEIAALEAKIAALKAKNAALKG

[29] = molecular target: T27, 4H327-AA; conditions: mean of both orientations
T27 chain: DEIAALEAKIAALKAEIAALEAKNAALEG

[30] = molecular target: T28, O3-AA
T28 chain: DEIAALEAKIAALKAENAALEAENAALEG

[31] = molecular target: T29, 4H2935-AA; conditions: mean of both orientations
T29 chain: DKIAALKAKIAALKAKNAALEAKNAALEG

[32] = molecular target: T30, 4H2614-AA; conditions: mean of both orientations
T30 chain: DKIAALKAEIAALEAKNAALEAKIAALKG

[33] = molecular target: T31, 4H481-AA; conditions: mean of both orientations
T31 chain: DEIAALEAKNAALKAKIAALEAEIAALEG

[34] = molecular target: T32, 4H3664-AA; conditions: mean of both orientations
T32 chain: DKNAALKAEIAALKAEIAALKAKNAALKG

Sequence of 4H_GCN4 (chain, as listed by the source): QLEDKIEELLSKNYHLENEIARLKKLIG

- interaction score [1]: -2.17
- interaction score [2]: 1.21
- interaction score [3]: 0.766
- interaction score [4]: -0.941
- interaction score [5]: -0.857
- interaction score [6]: -0.982
- interaction score [7]: -1.53
- interaction score [8]: 1.25
- interaction score [9]: -1.24
- interaction score [10]: 1.91
- interaction score [11]: 1.89
- interaction score [12]: 1.63
- interaction score [13]: 1.71
- interaction score [14]: 1.12
- interaction score [15]: 0.103
- interaction score [16]: -2.06
- interaction score [17]: -1.56
- interaction score [18]: -0.966
- interaction score [19]: 2.23
Binder: DKIAALKAKIAALKAEIAALEAKNAALKG [4H2888-AA]

- interaction score [20]: -1.47
- interaction score [21]: -0.663
- interaction score [22]: 0.635
- interaction score [23]: 0.0403
- interaction score [24]: 1.39
- interaction score [25]: 1.29
- interaction score [26]: -1.33
- interaction score [27]: -1.17
- interaction score [28]: -0.457
- interaction score [12]: -1.16
- interaction score [29]: -1.02
- interaction score [30]: -1.65
- interaction score [31]: -1.66
- interaction score [32]: -1.61
- interaction score [33]: -0.0556
- interaction score [34]: -1.51
Binder: DKIAALEAKNAALKAKIAALEAKNAALKG [4H2536-AA]
